Experimental findings from patent CN113583125A (SUZHOU CENTERGENE PHARMACEUTICALS CO LTD, dated 2021) are described below.

In one assay the target is T1, hCG (人绒毛膜促性腺激素) (human, UniProt P0DN86 21-165).
T1 construct: In the resin experiments hCG comes from the supernatant of CHO cells that express it stably
The assay is described as follows: affinity chromatography, VHH coupled to CNBr-agarose, hCG from CHO supernatant, elution at pH 3, SDS-PAGE.

In another assay the target is hLH (人促黄体生成素) (human, UniProt P01229 21-141). The assay is described as follows: affinity purification on VHH-agarose (CNBr), SDS-PAGE of the eluate.
Sequence of hLH (人促黄体生成素) (chain, as listed by the source, chain 1 of 2): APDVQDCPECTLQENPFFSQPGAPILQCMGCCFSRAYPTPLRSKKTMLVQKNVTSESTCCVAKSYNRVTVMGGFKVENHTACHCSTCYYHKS
Sequence of hLH (人促黄体生成素) (P01229 21-141, chain 2 of 2): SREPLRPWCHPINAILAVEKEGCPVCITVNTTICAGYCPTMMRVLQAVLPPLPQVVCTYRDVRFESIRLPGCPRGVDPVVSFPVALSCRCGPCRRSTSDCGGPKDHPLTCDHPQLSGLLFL
The target in assay [1] is T2, FSH (卵泡刺激素) (human, UniProt P01225 19-129).
T2 construct: also called hFSH
T2 sequence (chain, as listed by the source, chain 1 of 2): as the sequence (chain, as listed by the source, chain 1 of 2) above
T2 sequence (P01225 19-129, chain 2 of 2): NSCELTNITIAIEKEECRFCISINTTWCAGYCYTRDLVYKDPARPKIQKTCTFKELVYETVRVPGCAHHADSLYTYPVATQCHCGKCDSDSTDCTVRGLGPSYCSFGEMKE
Described as above.

Assay [2] concerns the target T3, SEQ ID NO:1蛋白 (FSH、hCG、TSH、FSH-CTP和hLH共同α链) (Homo sapiens (Human), UniProt P01215 25-116).
T3 construct: Immunogen for the alpaca and target of the Phage ELISA screen
The experiment in a line: Phage ELISA screen, VHH displayed on phage. For orientation: An ELISA detects its analyte on a solid surface through an enzyme-linked reagent.

In assay [3] the target is T2, FSH (卵泡刺激素). The experiment in a line: ELISA, plate coated with 10 ug/ml FSH, VHH from 1 mg/ml in 2-fold steps, detection with anti-6xHis-HRP.

T3 sequence (P01215 25-116 limits assumed): as the sequence (chain, as listed by the source, chain 1 of 2) above
T1 sequence (chain, as listed by the source, chain 1 of 2, other chains not shown): as the sequence (chain, as listed by the source, chain 1 of 2) above

B1: 1G9E (SEQ ID NO:12, VHH-sgs-HHHHHH) (VHH)
VHH: QVQLQESGGGLVQAGGSLRLSCAASGRTGSTYDMGWFRQAPGKERESVAAINWDSARTYYASSVRGRFTISRDNAKKTVYLQMNSLKPEDTAVYTCGAGEGGTWDSWGQGTQVTVSS
Consider B1, for which the binding result with hCG (人绒毛膜促性腺激素) is “binds”.

B2: SEQ ID NO:11蛋白 (1G9E突变体, VHH-sgs-HHHHHH) (VHH)
VHH: QVQLQESGGGLVQAGGSLRLSCAASGRTGSTYDMGWFRQAPGKERESVAAINWDSARTHYASSVRGRFTISRDNAKKTVYLQMNSLKPEDTAVYTCGAGEGGTWDSWGQGTQVTVSS
notes: Expressed in E. coli BL21 Star(DE3) and purified on nickel; In the resin experiments it is coupled to agarose
In the case of B2, the binding result with hLH (人促黄体生成素) and with FSH (卵泡刺激素) [1] was “binds” throughout.

B3: SEQ ID NO:16蛋白 (VHH-sgs-HHHHHH) (VHH)
VHH: QVQVVESGGGLVQAGDSLRLSCAASGRTFSSYAMGWFRQAPGKEREAVAAITWSGGSTYYADSVKGRFTISRDNTKNTVYLQMNSLKPEDTAVYYCAARDRADGSSWWDYWGQGTQVTVSS
With B3, the binding result (with hCG (人绒毛膜促性腺激素); in assay [2]) was “binds” in each case.

B4: SEQ ID NO:18蛋白 (VHH-sgs-HHHHHH) (VHH)
VHH: QVQLVESGGGLVQTGGSLRLSCAASGRTFSSYAMGWFRQAPGEEREAVAAITWSGGSTYYAASVQGRFTISRDNAKNTVYLQMNSLKPEDTAVYYCAARDRADGSSWWDYWGQGTQVTVSS
For B4, the binding result (in the assay with hCG (人绒毛膜促性腺激素); in assay [2]) was “binds” in each case.

B5: SEQ ID NO:17蛋白 (VHH-sgs-HHHHHH) (VHH)
VHH: QVQLVESGGGLVQTGGSLRLSCAASGRTFSSYAMGWFRQAPGEEREAVAALSWSGGSTYYAASVQGRFTISRDNAKNTVYLQMNSLKPEDTAVYYCAARDRADGSSWWDYWGQGTQVTVSS
notes: In the resin experiments it is coupled to agarose
For B5, the binding result (with hLH (人促黄体生成素); with FSH (卵泡刺激素) [3]; in assay [2]) was “binds” in each case.
